Experimental data: patent US12570711B2, “Platforms for co-stimulation, novel car designs and other enhancements for adoptive cellular therapy” (Angeles Therapeutics, Inc., priority 2017, dated 2026)

Legend:
[1] = tested on: bone marrow derived dendritic cells (DC); experiment: Bone marrow derived dendritic cells expressing selective NF-κB activators: cytokine production, antigen presentation, immune response; assay type: cell-based; conditions: compared to control DC
Description: The disclosure further provides that expression of a selective NF-κB activator can be used to improve the cytokine secretion, antigen presentation and immune response generated by antigen presenting cells, including dendritic cells. The disclosure further provides a method of improving the efficacy of vaccine, including cancer vaccines, by expression of a selective NF-κB activator in the antigen presenting cells ex vivo or in vivo. In one embodiment, the use of selective NF-κB activators increase cytokine production (e.g., TNFα) by antigen presenting cells (e.g., dendritic cells) by more than at least 15%.

NF-κB = experiment: NF-κB-Luciferase reporter assay in transfected 293FT cells (normalized to RSV-LacZ); assay type: cell-based; conditions: NF-κB-Luciferase plus RSV-LacZ reporter
Procedure: The different constructs were transfected in 293FT cells along with an NF-κB-Luciferase reporeter construct and a RSV-LacZ (normalization control) reporter construct and tested for their ability to activate NF-κB using assay described previously.
The constructs were transfected into 293FT cells along with an NF-κB-Luciferase reporeter construct and a RSV-LacZ reporter construct. Approximately 8 hours, post-transfection, cells were left untreated or treated with AP20187 (100 nM). After approximately 72 hours, cell lysates were prepared and analyzed for NF-κB luciferase and LacZ activities as described previously. NF-κB-Luc activity was normalized for LacZ activity to control for difference in transfection efficiency.

lymph node DCs = experiment: Lymph node dendritic cells after subcutaneous lentivector injection; assay type: in vivo, mouse; conditions: s.c. lentivector injection; compared to control vector-injected animals
Procedure: DC purification from lymph nodes. C57/BL6 mice (Harlan) are injected subcutaneously (s.c.) at the base of the tail with 1×10^8 infectious units (i.u.) lentivector. Six days later, lymph nodes (para-aortical and inguinal) are harvested (cells from mice in each group were pooled), incubated with collagenase CLS-4 (Worthington), and mashed to obtain single-cell suspensions. Fc receptors are blocked before CD11c-positive cells are selected using MACS beads (Miltenyi Biotec).
Following s.c. lentivector injection, transduced DCs are detected in the draining lymph nodes.

BM-derived DCs = experiment: Maturation markers on transduced bone marrow-derived dendritic cells by flow cytometry; assay type: cell-based, mouse; conditions: for maturation markers CD86, CD40, ICAM-1 and CD80 on DCs: compared to transduced DCs in the control vector group; for retention of CD86 on transduced DCs: culture
Procedure: Transduction of DCs and flow cytometry. Murine bone marrow-derived Dendritic cells (DCs) are prepared as previously described. Immature DCs are transduced on day 4 at an MOT of 20 with lentiviral vectors as described (Rowe H M et al, Molecular Therapy, 13, 2, 2006) and fed every 4 days with fresh medium containing granulocyte-macrophage colony-stimulating factor (50 ng/ml; from Peprotech). On day 5 posttransduction, DCs are harvested, washed, and blocked for Fc receptors before surface staining for maturation markers with the following biotin-conjugated Abs: anti-CD11c, anti-CD86, and anti-I-Ab (MHC class II) (all from BD Pharmingen); anti-CD40 (from Serotec); and anti-CD80, anti-ICAM-1, and anti-Kb (MHC class I) (all from eBioscience). A hamster isotype control Ab (biotin conjugated) is purchased from BD Pharmingen. Abs are then labeled with streptavidin RPE Cy-5 2o reagent (DakoCytomation) before flow cytometry. Lipopolysaccharide (LPS) (50 ng/ml) (Sigma) is added to untransduced DCs and left overnight as a positive control for maturation. Zymosan A (10 μg/ml) treatment (for 30 min at 37° C.) is used as a control for ERK activation.

EG7.OVA tumor cells = experiment: EG7.OVA tumor therapy in C57BL/6 mice; assay type: in vivo, mouse; conditions: transduced DC injection or direct lentivector injection after lethal dose of EG7.OVA
Procedure: Tumor therapy. EG7.OVA tumor cells are grown in RPMI plus 0.4 mg/ml G418 (Invitrogen). C57BL/6 mice are challenged with 2×10^6 tumor cells injected s.c. into the flank and then vaccinated.
Mice are inoculated with a lethal dose of EG7.OVA tumor cells before vaccinating them either with transduced DCs or with the human NEMO-K277A-, human NEMO-K277A-deltaV249-K255-, mouse NEMO-K270A- and IKK2-S177E-S181E-vectors directly. All mice are shown to develop tumors.

K13-opt: vFLIP K13 encoded by human codon optimized nucleic acid sequence
cytokine production, antigen presentation and immune response of DC [1]: superior cytokine production, antigen presentation, and immune response

hNEMO-K277A: human NEMO mutant K277A, constitutively active selective NF-κB activator used as accessory module
activation of NF-κB (NF-κB): strong activation | CD86 on lymph node DCs (lymph node DCs): upregulation of CD86 | maturation markers CD86, CD40, ICAM-1 and CD80 on DCs (BM-derived DCs): upregulated | retention of CD86 on transduced DCs (BM-derived DCs): retain their upregulated CD86 for several weeks in culture | cytokine production, antigen presentation and immune response of DC [1]: superior cytokine production, antigen presentation, and immune response | number of tumor-free mice (EG7.OVA tumor cells): higher than that in the control group

hNEMO-K277L: hNEMO mutant K277L
activation of NF-κB (NF-κB): NF-κB activation

hNEMO-K277I: hNEMO mutant in which Lys (K) at residue 277 is replaced by I
activation of NF-κB (NF-κB): weak activation

hNEMO-K277G: hNEMO mutant in which Lys (K) at residue 277 is replaced by G
activation of NF-κB (NF-κB): weak activation

B1: IKK2-S177E-S181E: constitutive active mutant of IKKβ/IKK2 (protein)
chain: MSWSPSLTTQTCGAWEMKERLGTGGFGNVIRWHNQETGEQIAIKQCRQELSPRNRERWCLEIQIMRRLTHPNVVAARDVPEGMQNLAPNDLPLLAMEYCQGGDLRKYLNQFENCCGLREGAILTLLSDIASALRYLHENRIIHRDLKPENIVLQQGEQRLIHKIIDLGYAKELDQGELCTEFVGTLQYLAPELLEQQKYTVTVDYWSFGTLAFECITGFRPFLPNWQPVQWHSKVRQKSEVDIVVSEDLNGTVKFSSSLPYPNNLNSVLAERLEKWLQLMLMWHPRQRGTDPTYGPNGCFKALDDILNLKLVHILNMVTGTIHTYPVTEDESLQSLKARIQQDTGIPEEDQELLQEAGLALIPDKPATQCISDGKLNEGHTLDMDLVFLFDNSKITYETQISPRPQPESVSCILQEPKRNLAFFQLRKVWGQVWHSIQTLKEDCNRLQQGQRAAMMNLLRNNSCLSKMKNSMASMSQQLKAKLDFFKTSIQIDLEKYSEQTEFGITSDKLLLAWREMEQAVELCGRENEVKLLVERMMALQTDIVDLQRSPMGRKQGGTLDDLEEQARELYRRLREKPRDQRTEGDSQEMVRLLLQAIQSFEKKVRVIYTQLSKTVVCKQKALELLPKVEEVVSLMNEDEKTVVRLQEKRQKELWNLLKIACSKVRGPVSGSPDSMNASRLSQPGQLMSQPSTASNSLPEPAKKSEELVAEAHNLCTLLENAIQDTVREQDQSFTALDWSWLQTEEEEHSCLEQAS
CD86 on lymph node DCs (lymph node DCs): upregulation of CD86 | maturation markers CD86, CD40, ICAM-1 and CD80 on DCs (BM-derived DCs): upregulated | retention of CD86 on transduced DCs (BM-derived DCs): retain their upregulated CD86 for several weeks in culture | cytokine production, antigen presentation and immune response of DC [1]: superior cytokine production, antigen presentation, and immune response | number of tumor-free mice (EG7.OVA tumor cells): higher than that in the control group

B2: hNEMO-K277A-DeltaV249-K255: mutant lacking aminoacid residues V249-K255 of human NEMO and carrying the K277A mutation (protein)
chain: MNRHLWKSQLCEMVQPSGGPAADQDVLGEESPLGKPAMLHLPSEQGAPETLQRCLEENQELRDAIRQSNQILRERCEELLHFQASQREEKEFLMCKFQEARKLVERLGLEKLDLKRQKEQALREVEHLKRCQQQMAEDKASVKAQVTSLLGELQESQSRLEAATKECQALEGRARAASEQARQLESEREALQQQHSVQVDQLRMQGQSVEAALRMERQAASEEKRKLAQLQVAYHQLFQEYDNHIKSSRGMQLEDLKQQLQQAEEALVAAQEVIDKLKEEAEQHKIVMETVPVLKAQADIYKADFQAERQAREKLAEKKELLQEQLEQLQREYSKLKASCQESARIEDMRKRHVEVSQAPLPPAPAYLSSPLALPSQRRSPPEEPPDFCCPKCQYQAPDMDTLQIHVMECIE
activation of NF-κB (NF-κB): NF-κB activation | CD86 on lymph node DCs (lymph node DCs): upregulation of CD86 | maturation markers CD86, CD40, ICAM-1 and CD80 on DCs (BM-derived DCs): upregulated | retention of CD86 on transduced DCs (BM-derived DCs): retain their upregulated CD86 for several weeks in culture | cytokine production, antigen presentation and immune response of DC [1]: superior cytokine production, antigen presentation, and immune response | number of tumor-free mice (EG7.OVA tumor cells): higher than that in the control group

B3: IKK1-S176E-S180E: constitutive active mutant of IKKa/IKK1 (protein)
chain: MERPPGLRPGAGGPWEMRERLGTGGFGNVCLYQHRELDLKIAIKSCRLELSTKNRERWCHEIQIMKKLNHANVVKACDVPEELNILIHDVPLLAMEYCSGGDLRKLLNKPENCCGLKESQILSLLSDIGSGIRYLHENKIIHRDLKPENIVLQDVGGKIIHKIIDLGYAKDVDQGELCTEFVGTLQYLAPELFENKPYTATVDYWSFGTMVFECIAGYRPFLHHLQPFTWHEKIKKKDPKCIFACEEMSGEVRFSSHLPQPNSLCSLIVEPMENWLQLMLNWDPQQRGGPVDLTLKQPRCFVLMDHILNLKIVHILNMTSAKIISFLLPPDESLHSLQSRIERETGINTGSQELLSETGISLDPRKPASQCVLDGVRGCDSYMVYLFDKSKTVYEGPFASRSLSDCVNYIVQDSKIQLPIIQLRKVWAEAVHYVSGLKEDYSRLFQGQRAAMLSLLRYNANLTKMKNTLISASQQLKAKLEFFHKSIQLDLERYSEQMTYGISSEKMLKAWKEMEEKAIHYAEVGVIGYLEDQIMSLHAEIMGLQKSPYGRRQGDLMESLEQRAIDLYKQLKHRPSDHSYSDSTEMVKIIVHTVQSQDRVLKELFGHLSKLLGCKQKIIDLLPKVEVALSNIKEADNTVMFMQGKRQKEIWHLLKIACTQSSARSLVGSSLEGAVTPQTSAWLPPTSAEHDHSLSCVVTPQDGETSAQMIEENLNCLGHLSTIIHEANEEQGNSMMNLDWSWLTE
cytokine production, antigen presentation and immune response of DC [1]: superior cytokine production, antigen presentation, and immune response

B4: mNEMO-K270A: mouse NEMO-K270A mutant, known to activate NF-κB constitutively (protein)
chain: MNKHPWKNQLSETVQPSGGPAEDQDMLGEESSLGKPAMLHLPSEQGTPETLQRCLEENQELRDAIRQSNQMLRERCEELLHFQVSQREEKEFLMCKFQEARKLVERLSLEKLDLRSQREQALKELEQLKKCQQQMAEDKASVKAQVTSLLGELQESQSRLEAATKDRQALEGRIRAVSEQVRQLESEREVLQQQHSVQVDQLRMQNQSVEAALRMERQAASEEKRKLAQLQAAYHQLFQDYDSHIKSSKGMQLEDLRQQLQQAEEALVAAQELIDKLKEEAEQHKIVMETVPVLKAQADIYKADFQAERHAREKLVEKKEYLQEQLEQLQREFNKLKVGCHESARIEDMRKRHVETPQPPLLPAPAHHSFHLALSNQRRSPPEEPPDFCCPKCQYQAPDMDTLQIHVMECIE
activation of NF-κB (NF-κB): strong activation | CD86 on lymph node DCs (lymph node DCs): upregulation of CD86 | maturation markers CD86, CD40, ICAM-1 and CD80 on DCs (BM-derived DCs): upregulated | retention of CD86 on transduced DCs (BM-derived DCs): retain their upregulated CD86 for several weeks in culture | cytokine production, antigen presentation and immune response of DC [1]: superior cytokine production, antigen presentation, and immune response | number of tumor-free mice (EG7.OVA tumor cells): higher than that in the control group
